Tested on: Escherichia coli TOP10
Test: shrunken log2 fold change of peptide-encoding DNA abundance (4.5 h post-induction vs induction); higher = less antimicrobial activity (less host growth inhibition)
Settings: time post-induction: 4.5 h; library: site-saturation at positions 5, 18, 19, 20
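Note: peptides expressed intracellularly from a pBAD plasmid library in pooled LB shake-flask culture, induced with 0.3% L-arabinose, DNA abundance read by NGS, three biological replicates, DESeq2 with apeglm shrinkage.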

Row | Sequence | shrunken log2 fold change
1 | RRIRDRPPRLPRPRPRPGNNPRP | -0.125
2 | RRIRDRPPRLPRPRPRPGPYPRP | -0.079
3 | RRIRDRPPRLPRPRPRPGQLPRP | -0.284
4 | RRIRDRPPRLPRPRPRPGRKPRP | 0.0333
5 | RRIRDRPPRLPRPRPRPHAEPRP | 0.0887
6 | RRIRDRPPRLPRPRPRPHARPRP | 0.0493
7 | RRIRDRPPRLPRPRPRPHAWPRP | 0.1
8 | RRIRDRPPRLPRPRPRPHCHPRP | -0.276
9 | RRIRDRPPRLPRPRPRPHCLPRP | 0.12
10 | RRIRDRPPRLPRPRPRPHCSPRP | 0.0218
11 | RRIRDRPPRLPRPRPRPHCVPRP | 0.017
12 | RRIRDRPPRLPRPRPRPHDPPRP | -0.147
13 | RRIRDRPPRLPRPRPRPHEIPRP | -0.0115
14 | RRIRDRPPRLPRPRPRPHFAPRP | -0.103
15 | RRIRDRPPRLPRPRPRPHFPPRP | -0.0339
16 | RRIRDRPPRLPRPRPRPHGLPRP | -0.0404
17 | RRIRDRPPRLPRPRPRPHHLPRP | -0.0476
18 | RRIRDRPPRLPRPRPRPHHVPRP | -0.145
19 | RRIRDRPPRLPRPRPRPHIEPRP | 0.0695
20 | RRIRDRPPRLPRPRPRPHIYPRP | -0.0848
21 | RRIRDRPPRLPRPRPRPHLLPRP | 0.0253
22 | RRIRDRPPRLPRPRPRPHMEPRP | 0.198
23 | RRIRDRPPRLPRPRPRPHMVPRP | -0.195
24 | RRIRDRPPRLPRPRPRPHNQPRP | -0.398
25 | RRIRDRPPRLPRPRPRPHQIPRP | -0.248
26 | RRIRDRPPRLPRPRPRPHRAPRP | -0.0299
27 | RRIRDRPPRLPRPRPRPHSPPRP | -0.264
28 | RRIRDRPPRLPRPRPRPHTRPRP | 0.013

Row | Sequence | shrunken log2 fold change
29 | RRIRDRPPRLPRPRPRPHWLPRP | 0.149
30 | RRIRDRPPRLPRPRPRPHWQPRP | -0.149
31 | RRIRDRPPRLPRPRPRPICDPRP | 0.137
32 | RRIRDRPPRLPRPRPRPICQPRP | 0.0244
33 | RRIRDRPPRLPRPRPRPIDYPRP | -0.0396
34 | RRIRDRPPRLPRPRPRPIEVPRP | -0.13
35 | RRIRDRPPRLPRPRPRPIGCPRP | 0.242
36 | RRIRDRPPRLPRPRPRPIGLPRP | -0.00129
37 | RRIRDRPPRLPRPRPRPIGRPRP | 0.00739
38 | RRIRDRPPRLPRPRPRPIHMPRP | 0.0641
39 | RRIRDRPPRLPRPRPRPIIGPRP | -0.193
40 | RRIRDRPPRLPRPRPRPIIVPRP | 0.0216
41 | RRIRDRPPRLPRPRPRPIKFPRP | -0.236
42 | RRIRDRPPRLPRPRPRPILPPRP | 0.0106
43 | RRIRDRPPRLPRPRPRPIMIPRP | -0.408
44 | RRIRDRPPRLPRPRPRPINEPRP | -0.144
45 | RRIRDRPPRLPRPRPRPINIPRP | -0.282
46 | RRIRDRPPRLPRPRPRPINYPRP | 0.0585
47 | RRIRDRPPRLPRPRPRPIPLPRP | -0.0193
48 | RRIRDRPPRLPRPRPRPIPNPRP | 0.0139
49 | RRIRDRPPRLPRPRPRPIPRPRP | -0.187
50 | RRIRDRPPRLPRPRPRPIPYPRP | -0.0147
51 | RRIRDRPPRLPRPRPRPIQHPRP | -0.444
52 | RRIRDRPPRLPRPRPRPIQPPRP | 0.00911
53 | RRIRDRPPRLPRPRPRPISAPRP | 0.0787
54 | RRIRDRPPRLPRPRPRPISNPRP | -0.175
55 | RRIRDRPPRLPRPRPRPISTPRP | -0.146

Source: the supplement of paper PMC9112550, “Optimization of the antimicrobial peptide Bac7 by deep mutational scanning” (BMC Biology, 2022)
